From patent US20220213196A1 (GRITSTONE BIO, published 2022)

molecular target: HLA-B*35:01_… (HLA-PEPTIDE target G5), recombinant soluble complex (human, UniProt P01889 25-297 at identity 0.94); P61769 21-119, enzymatically biotinylated (BirA) for screening and functional assays); experiment: scFv PPE ELISA

Binder | fold binding to target pHLA over minipool of negative control pHLAs [fold]
scFv G5-P1-E05 (scFv, V domains shown) VH: QVQLVQSGAEVKKPGASVKVSCKASGYTFTSYNMHWVRQAPGQGLEWMGWINPNSGGTNYAQKFQGRVTMTRDTSTSTVYMELSSLRSEDTAVYYCARDVMDVWGQGTTVTVSS VL: DIQMTQSPSSLSASVGDRVTITCRASQGISNYLNWYQQKPGKAPKLLIYYASSLQSGVPSRFSGSGSGTDFTLTISSLQPEDFATYYCQQTYMMPYTFGQGTKVEIK | ≥ 3
scFv G5-P1B12 (scFv, V domains shown) VH: EVQLLESGGGLVQPGGSLRLSCAASGFTFSNSDMNWVRQAPGKGLEWVASISSSGGYINYADSVKGRFTISRDNSKNTLYLQMNSLRAEDTAVYYCAKVNWNDGPYFDYWGQGTLVTVSS VL: DIQMTQSPSSLSASVGDRVTITCRASQSISSWLAWYQQKPGKAPKLLIYAASSLQSGVPSRFSGSGSGTDFTLTISSLQPEDFATYYCQQANSFPLTFGGGTKVEIK | ≥ 3
scFv G5-P3G08 (scFv, V domains shown) VH: QVQLVQSGAEVKKPGASVKVSCKASGYIFRNYPMHWVRQAPGQGLEWMGWINPDSGGTKYAQKFQGRVTMTRDTSTSTVYMELSSLRSEDTAVYYCARDNGVGVDYWGQGTLVTVSS VL: DIQMTQSPSSLSASVGDRVTITCRASQGISNYLAWYQQKPGKAPKLLIYAASSLQSGVPSRFSGSGSGTDFTLTISSLQPEDFATYYCQQSYITPYTFGQGTKLEIK | ≥ 3
scFv G5-P1C12 (scFv, V domains shown) VH: QVQLVQSGAEVKKPGSSVKVSCKASGGTFSNFGVSWLRQAPGQGLEWMGGIIPILGTANYAQKFQGRVTITADESTSTAYMELSSLRSEDTAVYYCATPTNSGYYGPYYYYGMDVWGQGTTVTVSS VL: DIQMTQSPSSLSASVGDRVTITCRASQSISSWLAWYQQKPGKAPKLLIYAASTLQSGVPSRFSGSGSGTDFTLTISSLQPEDFATYYCQQSYSIPLTFGGGTKVEIK | ≥ 3
scFv G5-P4E04 (scFv, V domains shown) VH: QVQLVQSGAEVKKPGASVKVSCKASGGTFSSYGISWVRQAPGQGLEWMGWINPNSGVTKYAQKFQGRVTMTRDTSTSTVYMELSSLRSEDTAVYYCARGDYYFDYWGQGTLVTVSS VL: DIQMTQSPSSLSASVGDRVTITCRASQSISRFLNWYQQKPGKAPKLLIYGASRPQSGVPSRFSGSGSGTDFTLTISSLQPEDFATYYCQQSYSTPLTFGQGTKVEIK | ≥ 3
scFv G5-P3G01 (scFv, V domains shown) VH: QVQLVQSGAEVKKPGASVKVSCKASGGTFSGYLVSWVRQAPGQGLEWMGWINPNSGGTNTAQKFQGRVTMTRDTSTSTVYMELSSLRSEDTAVYYCAREGYGMDVWGQGTTVTVSS VL: not shown | ≥ 3
scFv G5-P4B02 (scFv, V domains shown) VH: QVQLVQSGAEVKKPGASVKVSCKASGYTFTGYYMHWVRQAPGQGLEWMGWMNPNIGNTGYAQKFQGRVTMTRDTSTSTVYMELSSLRSEDTAVYYCARGIADSGSYYGNGRDYYYGMDVWGQGTTVTVSS VL: DIVMTQSPDSLAVSLGERATINCKTSQSVLYRPNNENYLAWYQQKPGQPPKLLIYQASIREPGVPDRFSGSGSGTDFTLTISSLQAEDVAVYYCQQYYTTPYTFGQGTKLEIK | ≥ 3

molecular target: HLA-A*01:01_… (HLA-PEPTIDE target G10), recombinant soluble complex (human, UniProt P04439-2 25-297; P61769 21-119, enzymatically biotinylated (BirA) for screening and functional assays); experiment: scFv PPE ELISA

Binder | fold binding to target pHLA over minipool of negative control pHLAs [fold]
scFv R3G10-P5C08 (scFv, V domains shown) VH: QVQLVQSGAEVKKPGASVKVSCKASGYNFTGYYMHWVRQAPGQGLEWMGIIAPSDGSTNYAQKFQGRVTMTRDTSTSTVYMELSSLRSEDTAVYYCARETGDDAFDIWGQGTMVTVSS VL: not shown | ≥ 3
scFv R3G10-P4D04 (scFv, V domains shown) VH: QVQLVQSGAEVKKPGASVKVSCKASGYTFTGYYVHWVRQAPGQGLEWMGIIAPSDGSTNYAQKFQGRVTMTRDTSTSTVYMELSSLRSEDTAVYYCARDPGGYMDVWGKGTTVTVSS VL: DIQMTQSPSSLSASVGDRVTITCRASQSISSYLAWYQQKPGKAPKLLIYDASKLETGVPSRFSGSGSGTDFTLTISSLQPEDFATYYCQQSYGVPTFGQGTKLEIK | ≥ 3
scFv R3G10-P4C05 (scFv, V domains shown) VH: QVQLVQSGAEVKKPGASVKVSCKASGYTFTGYYMHWVRQAPGQGLEWMGIIGPSDGSTTYAQKFQGRVTMTRDTSTSTVYMELSSLRSEDTAVYYCARAENGMDVWGQGTTVTVSS VL: DIQMTQSPSSLSASVGDRVTITCRASQRISSYLNWYQQKPGKAPKLLIYSASTLQSGVPSRFSGSGSGTDFTLTISSLQPEDFATYYCQQSYSTPFTFGPGTKVDIK | ≥ 3
scFv R3G10-P4E07 (scFv, V domains shown) VH: QVQLVQSGAEVKKPGSSVKVSCKASGYTFTGYYMHWVRQAPGQGLEWMGRISPSDGSTTYAPKFQGRVTITADESTSTAYMELSSLRSEDTAVYYCARDMGDAFDIWGQGTTVTVSS VL: not shown | ≥ 3
scFv R3G10-P2C04 (scFv, V domains shown) VH: QVQLVQSGAEVKKPGASVKVSCKASGGTFSNSIINWVRQAPGQGLEWMGWMNPNSGNTNYAQKFQGRVTMTRDTSTSTVYMELSSLRSEDTAVYYCAREQWPSYWYFDLWGRGTLVTVSS VL: not shown | ≥ 3
scFv R3G10-P3E04 (scFv, V domains shown) VH: QVQLVQSGAEVKKPGASVKVSCKASGNTFIGYYVHWVRQAPGQGLEWVGIINPNGGSISYAQKFQGRVTMTRDTSTSTVYMELSSLRSEDTAVYYCARGSGDPNYYYYYGLDVWGQGTTVTVSS VL: DIQMTQSPSSLSASVGDRVTITCQASQDISNYLNWYQQKPGKAPKLLIYAASNLQSGVPSRFSGSGSGTDFTLTISSLQPEDFATYYCQQANSLPYTFGQGTKVEIK | ≥ 3
scFv R3G10-P4D10 (scFv, V domains shown) VH: QVQLVQSGAEVKKPGASVKVSCKASGYTFTGYYLHWVRQAPGQGLEWMGMIGPSDGSTSYAQKFQGRVTMTRDTSTSTVYMELSSLRSEDTAVYYCARDGDAFDIWGQGTMVTVSS VL: DIQMTQSPSSLSASVGDRVTITCRASQGISSWLAWYQQKPGKAPKLLIYDASNLETGVPSRFSGSGSGTDFTLTISSLQPEDFATYYCQQSYSTPLTFGGGTKVEIK | ≥ 3
scFv R3G10-P2G11 (scFv, V domains shown) VH: QVQLVQSGAEVKKPGASVKVSCKASGGTFSTHDINWVRQAPGQGLEWMGVINPSGGSAIYAQKFQGRVTMTRDTSTSTVYMELSSLRSEDTAVYYCARDRGYSYGYFDYWGQGTLVTVSS VL: DIQMTQSPSSLSASVGDRVTITCRASQDISRYLAWYQQKPGKAPKLLIYDASNLETGVPSRFSGSGSGTDFTLTISSLQPEDFATYYCQQANSFPRTFGQGTKVEIK | ≥ 3
scFv R3G10-P4A02 (scFv, V domains shown) VH: QVQLVQSGAEVKKPGASVKVSCKASGYTLSYYYMHWVRQAPGQGLEWMGMIGPSDGSTSYAQRFQGRVTMTRDTSTGTVYMELSSLRSEDTAVYYCARDTGDHFDYWGQGTLVTVSS VL: not shown | ≥ 3
scFv R3G10-P4G06 (scFv, V domains shown, VH and VL as printed equal those of R3G10-P4A02) VH: QVQLVQSGAEVKKPGASVKVSCKASGYTLSYYYMHWVRQAPGQGLEWMGMIGPSDGSTSYAQRFQGRVTMTRDTSTGTVYMELSSLRSEDTAVYYCARDTGDHFDYWGQGTLVTVSS VL: not shown | ≥ 3
